Source: the DeepSol protein solubility set

Test: soluble on expression in E. coli; label from the status in PepcDB or PDB records

Soluble on expression in E. coli, not soluble:
MGSDKIHHHHHHMAGMQIQGMQIESIDIQNYRLFKQASLNKLSRLAVFVGENGAGKSTIFDVFSFLKDSLAQNAAKAVARRGGFKELVSRGTEGPISITLKFRETGGRLATYELSVAFEGGRVVVDREVLKFRRGQRGQPWHFVDFSRGRGTAVTNEAMYGKPGVKVERKEYILDEPTVLAIKGLGQFKEFRVVSEFRNLIENWHITDFHIADARPSAEEGYAEHLSTRGDNVAQVAQFLYDHHPDRFNNILDAMKRRIPGVEKVEAKPTEDGRLVLRFQDGAFKDPFIARYVSDGTIKMFAYLVLLHDPNPFPLLAVEEPENQLYPELLQELAEEFRDYARRGGQVFISTHSPEFMNGLYLDEIYWLSKKDGYSTIYRGADSEVLKRLVAEGDHPGALWRQGVFKGAW
MTIKTTMGILAGKASHFVLSKLGRGSTLPGKIALKFDKDILDTLAKDYEIVVVTGTNGKTLTTALTVGILKEAYGEIVTNPSGANMITGITSTFLTAKRAKSGKKIAVLEIDEASLPKITEYITPSLFVFTNIFRDQMDRYGEIYTTYQMILDGAAKAPAATILANGDSPLFNSKELVNPVRFYGFDTEKHAPELTHYNTEGIVCPKCESILQYHLNTYANLGDYVCLNCDFHRPELDYKLTQLTKITNTTSEFIIDGQDYKINVGGLYNIYNALAAVSVAEFFGVVPEQIKAGFDKSRAIFGRQETFKIGDKSCTLVLIKNPVGASQALDMIKLADYPFSLSVLLNANYADGIDTSWIWDANFESILDMDIPEINAGGVRHSEIARRLRVTGYPEDKITQAEKLEDIMTLIEKQDCDHAYILATYTAMLEFRDILAQRHAVGKGMN
MGSDKIHHHHHHMEQCNERPKVSVIIPVYNTCNYVQEALESICQQTLEELEIIVIDDGSTDCSRAIVEEIAIKDTRIQVYKQSNQGLSITRNQGLKFSTGEYIYFMDSDDFLEPDALELCYRKCTKEALDFVFFDAETFTIEPNIPESSFDYQRTLDLPEKICSGIDMLKTQLKTYKFKSSVCLNLFHREFICEERLSFYPGILHEDQLFMIQAYLHASKTGFIRRSFFHRRIRTNSIMTKKFTWKNMEGYLTVTNELLRELPIYPKTYHHTIFFFLRQMLDAAVWQAHTLSLPQRIKLFSLCLKYYRPYVTMRTLMVLLLKTSIHPRQ
MSLDSIELMAKIHASARWSEAALQILADETRRILKHEAGTRAGEDPEQLHQMRVGIRRLRSALRLFEPALKLPKPARRRSLSPLAAVLGSVRDLDVQMEMLRERYLGALPEGEQQALERLLAHLESLRTQARSAMLRYLDGLDYEQFKSAYTEFLESPKFRRGADESLYHLLPAFLREALSTLWAHPGWEEPDVETMHDLRIAVKRVRYNLEFFLGCYGKAVRSLHGELKRIQEELGIIHDCDVLLGQLHTEPLGPATPWQQPFSRLTALVRNERRNAVRRFRRLKTRLLSEDMRNSLAVWVSWPGTADDEGHHHHHH
